Experiment [1] relates to MC903-induced spontaneous chronic itch in mice. Briefly: MC903-induced mouse model of atopic dermatitis, spontaneous scratching. As to conditions: cilengitide 100 nM by tail vein injection, Day 10. Type of experiment: in vivo. The protocol: C57BL6 mice (Jackson Labs, Ellsworth, Maine, United States of America) were applied daily with MC903 (4 nmol) and vehicle (97% ethanol) after brief anesthesia. Skin thickness was measured using cutimeter as described (Fukuyama et al., 2015). Scratching behavior was video-monitored for 30 min on Day 1 and Day 7. On Day 7 skin was collected from vehicle and MC903 treated mice for the Western Blot (WB) as described below. NC/Nga mice (Charles River, Yokohama, Japan) were sensitized and challenged with house dust mite (HDM) allergen (Dermatophagoides farina, Greer, Lenoir, N.C., United States of Amercia) as described previously (Fukuyama et al., 2018). […] Scratching behavior was video monitored for 60 min period immediately after HDM on day 42. […] The amount of periostin was determined using ELISA according to the manufacturer's instruction.
A mouse model of atopic dermatitis in mice is generated. […] At Day 10, vehicle or the compound (at least one dose) is administered intravenous/orally to the animals, and then measured the scratching behaviors for at least 60 min. In order to see the sub-chronic effect of the compound, vehicle and the compound is administered to MC903-treated animals for several days and the alteration of the scratching behaviors is measured.

In a further experiment the test system is monkeys. The experiment can be described thus: Periostin injection in monkeys, number of scratches. Particulars: mouse recombinant periostin 25 μg/100 μl subcutaneously, thigh, within 15 minutes. Type of experiment: in vivo, monkey. Here is the method: All behavioral experiments were conducted during the light cycle at ambient temperature (23° C.). Behavioral assessment of scratching behavior was conducted as described previously (Mishra et al., 2011). Briefly, mice were injected intradermal into the nape of the neck with periostin (R&D), histamine, and chloroquine (all Millipore-Sigma) as previously described (Shimada and LaMotte, 2008). Compounds were diluted in PBS and the same was used as a vehicle. […] Additionally, cilengitide and periostin were combined together (mix) and injected i.d. into the dorsal neck of mouse. Scratching behavior was recorded for 30 minutes and data was presented in bouts per 30 minutes for mice. […] For eye wipes assay, periostin and capsaicin were dropped on mouse cornea and counted wipes for 1-minute. […] For dog's study, periostin (25 μg/25 μl) was injected in the dorsal neck (s.c.) and behavior was recorded and quantified for 30 minutes as “duration of pruritus manifestation” (DPM), as described earlier (Paps et al., 2016). […] When different raters separately scored a single tape, the ratings indicated high interrater reliability (coefficient of correlation, r>0.95). This method of itch readout in NHP has been used and accepted (Ko and Naughton, 2000). The behavior was recorded for 30 minutes duration and number of scratches quantified. […]

Another experiment concerns dogs. The experiment can be described thus: Periostin injection in dogs, pruritus manifestations. Type of experiment: in vivo, dog. Particulars: mouse recombinant periostin 25 μg/100 μl intradermally, neck, within 15 minutes.
Experiment [2] relates to Mouse bone marrow-derived mast cells. Briefly: Mast cell degranulation (β-hexoseaminidase release). The class given is cell-based. Particulars: increasing concentrations, 30 minutes challenge. The protocol:
Mouse bone marrow-derived mast cells were cultured from femurs of C57B1/6J mice as described (Jensen et al., 2006). Degranulation was assessed by measuring β-hexoseaminidase release as described (Cruse et al., 2013) using mast cells sensitized with 100 ng/mL anti-DNP IgE (SPE7 clone) (Sigma Aldrich, St. Louis, Miss., United States of America) for 16 hours, before the cells were challenged for 30 minutes with the indicated stimulus.

In another experiment the test system is SST-positive DRG neurons. Briefly: Whole-cell patch clamp recordings in SST-positive mouse DRG neurons. Type of experiment: cell-based. Here is the method: DRGs were removed aseptically from SOM-reporter mice (6-8 weeks) and incubated with collagenase (1.25 mg/ml)/dispase-II (2.4 units/ml) (both from Roche, Basel, Switzerland) at 37° C. for 90 min, then digested with 0.25% trypsin for 8 min at 37° C., followed by 0.25% trypsin inhibitor. Cells were mechanically dissociated with a flame polished Pasteur pipette in the presence of 0.05% DNAse I (Sigma, St. Louis, Miss., United States of America). DRG cells were plated on glass cover slips and grown in a neurobasal defined medium (with 2% B27 supplement, Invitrogen, Carlsbad, Calif., United States of America) with 5 μM AraC and 5% carbon dioxide at 36.5° C. DRG neurons were grown for 24 hours before use. Whole-cell patch clamp recordings were performed at room temperature using an Axopatch-700B amplifier (Axon Instruments, Foster City, Calif., United States of America) with a Digidata 1440B (Axon Instruments, Foster City, Calif., United States of America). Only SOM-positive neurons (<[…]) were recorded. […] Pipette resistance was 4-6 MΩ for whole-cell recording of periostin—induced inward currents, as previously recorded (Han et al., Neuron, 2018, PMID: 30033153)
On the technique in general: The patch-clamp technique gives a direct electrical read-out from membranes.

Take `CC(C)[C@H]1C(=O)N[C@@H](CCCN=C(N)N)C(=O)NCC(=O)N[C@@H](CC(=O)O)C(=O)N[C@H](Cc2ccccc2)C(=O)N1C` [cilengitide, cyclo RGDf-n(Me)V]: the MC903-induced spontaneous itching result in experiment [1] is listed as “significantly reduced”.

B1: periostin: fasciclin extracellular matrix protein, endogenous ligand of integrin αvβ3; mouse recombinant used (protein)
chain: NSYYDKVLAHSRIRGRDQGPNVCALQQILGTKKKYFSSCKNWYQGAICGKKTTVLYECCPGYMRMEGMKGCPAVMPIDHVYGTLGIVGATTTQHYSDVSKLREEIEGKGSYTYFAPSNEAWENLDSDIRRGLENNVNVELLNALHSHMVNKRMLTKDLKHGMVIPSMYNNLGLFINHYPNGVVTVNCARVIHGNQIATNGVVHVIDRVLTQIGTSIQDFLEAEDDLSSFRAAAITSDLLESLGRDGHFTLFAPTNEAFEKLPRGVLERIMGDKVASEALMKYHILNTLQCSEAITGGAVFETMEGNTIEIGCEGDSISINGIKMVNKKDIVTKNGVIHLIDEVLIPDSAKQVIELAGKQQTTFTDLVAQLGLASSLKPDGEYTLLAPVNNAFSDDTLSMDQRLLKLILQNHILKVKVGLSDLYNGQILETIGGKQLRVFVYRTAICIENSCMVRGSKQGRNGAIHIFREIIQPAEKSLHDKLRQDKRFSIFLSLLEAADLKDLLTQPGDWTLFAPTNDAFKGMTSEERELLIGDKNALQNIILYHLTPGVYIGKGFEPGVTNILKTTQGSKIYLKGVNETLLVNELKSKESDIMTTNGVIHVVDKLLYPADIPVGNDQLLELLNKLIKYIQIKFVRGSTFKEIPMTVYRPAMTKIQIEGDPDFRLIKEGETVTEVIHGEPVIKKYTKIIDGVPVEITEKQTREERIITGPEIKYTRISTGGGETGETLQKFLQKEVSKVTKFIEGGDGHLFEDEEIKRLLQGDTPAKKIPANKRVQGPRRRSREGRSQ
As to B1, the “itch after periostin injection in monkeys” value in the experiment with monkeys is on record as “robust scratching”. Also, the “itch after periostin injection in dogs” value in the experiment with dogs is recorded as “robust scratching”. For the same molecule, the “degranulation of anti-DNP IgE-sensitized mast cells” value in experiment [2] is on record as “no degranulation”. In addition, the “inward current by periostin” value in the experiment with SST-positive DRG neurons (periostin 1 μg/ml, pilot data) is given as “weak inward currents”. The “average inward current by periostin” value in the experiment on SST-positive DRG neurons (periostin 10 μg/ml, 8 neurons from 4 mice) worked out at 58.4 pA.

The record behind these values is patent US20220370545A1, “INTEGRIN RECEPTOR ALPHA V BETA 3 AND ITS LIGAND INVOLVED IN CHRONIC ITCH” (North Carolina State University, priority 2019, published 2022).
